# Positions count from the first letter of the chain named.
# T1: FcγRIIa H (human, UniProt P12318 34-217)
# T1 construct: extracellular domain; also called FcγRIIa type H; 2aH; not shown: His tag at the C terminus
# T1 sequence (looked up): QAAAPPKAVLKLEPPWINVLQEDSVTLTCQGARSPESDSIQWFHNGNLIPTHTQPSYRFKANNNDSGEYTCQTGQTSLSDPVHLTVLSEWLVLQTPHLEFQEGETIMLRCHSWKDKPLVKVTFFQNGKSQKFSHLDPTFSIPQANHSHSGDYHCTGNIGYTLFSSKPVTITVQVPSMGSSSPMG
# T2: FcγRIIa R (human, UniProt P12318 34-217)
# T2 construct: extracellular domain; also called FcgRIIa R; FcγRIIa type R; not shown: His tag at the C terminus
# T2 sequence (looked up): T1 sequence (looked up) with H134R
# T3: FcγRIIb (human, UniProt P31994 43-217)
# T3 construct: extracellular domain; also called 2b; not shown: His tag at the C terminus
# T3 sequence (looked up): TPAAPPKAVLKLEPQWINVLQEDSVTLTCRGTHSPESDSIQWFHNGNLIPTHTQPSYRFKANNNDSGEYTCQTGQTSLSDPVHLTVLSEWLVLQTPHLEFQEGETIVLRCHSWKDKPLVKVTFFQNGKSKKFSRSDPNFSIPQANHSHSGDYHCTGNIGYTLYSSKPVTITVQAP
# T4: FcγRIIb extracellular domain with C-terminal His tag (human, UniProt P31994 43-217)
# T4 construct: extracellular domain; also called 2b; FcgRIIb
# T4 sequence (looked up): T3 sequence (looked up)
# B1: GpH7-A5/GpH7-B3 variant E269_01G/GpL16-k0 (antibody, human IgG1, kappa)
# heavy 1: not shown
# heavy 2: not shown
# light: DIVMTQSPLSLPVTPGEPASISCQASESLVHSNRNTYLHWYLQKPGQSPQLLIYKVSNRFSGVPDRFSGSGSGTDFTLKISRVEAEDVGVYYCSQNTHVPPTFGQGTKVEIERTVAAPSVFIFPPSDEQLKSGTASVVCLLNNFYPREAKVQWKVDNALQSGNSQESVTEQDSKDSTYSLSSTLTLSKADYEKHKVYACEVTHQGLSSPVTKSFNRGEC
# notes: also called He Ab
# B2: GpH7-A5/GpH7-B3 variant G236_03V/GpL16-k0 (antibody, human IgG1, kappa)
# heavy 1: not shown
# heavy 2: not shown
# light: B1 light
# notes: also called He Ab
# B3: GpH7-A5/GpH7-B3 variant L235_12R/GpL16-k0 (antibody, human IgG1, kappa)
# heavy 1: not shown
# heavy 2: not shown
# light: B1 light
# notes: also called He Ab
# B4: GpH7-A5/GpH7-B3 variant E269_02A/GpL16-k0 (antibody, human IgG1, kappa)
# heavy 1: not shown
# heavy 2: not shown
# light: B1 light
# notes: also called He Ab
# B5: GpH7-A5/GpH7-B3 variant G236_05P/GpL16-k0 (antibody, human IgG1, kappa)
# heavy 1: not shown
# heavy 2: not shown
# light: B1 light
# notes: also called He Ab
# B6: GpH7-A5/GpH7-B3 variant G236_04F/GpL16-k0 (antibody, human IgG1, kappa)
# heavy 1: not shown
# heavy 2: not shown
# light: B1 light
# notes: also called He Ab
# B7: GpH7-A5/GpH7-B3 variant G236_07I/GpL16-k0 (antibody, human IgG1, kappa)
# heavy 1: not shown
# heavy 2: not shown
# light: B1 light
# notes: also called He Ab
# B8: GpH7-A5/GpH7-B3 variant L235_11K/GpL16-k0 (antibody, human IgG1, kappa)
# heavy 1: not shown
# heavy 2: not shown
# light: B1 light
# notes: Heterodimerized IgG1; mutation in the GpH7-B3 chain only; also called He Ab
# B9: GpH7-A5/GpH7-B3 variant L234_01G/GpL16-k0 (antibody, human IgG1, kappa)
# heavy 1: not shown
# heavy 2: not shown
# light: B1 light
# notes: as for B8
# B10: GpH7-A5/GpH7-B3 variant L235_13S/GpL16-k0 (antibody, human IgG1, kappa)
# heavy 1: not shown
# heavy 2: not shown
# light: B1 light
# notes: as for B8
# B11: GpH7-A5/GpH7-B3 variant L234_04F/GpL16-k0 (antibody, human IgG1, kappa)
# heavy 1: not shown
# heavy 2: not shown
# light: B1 light
# notes: as for B8
# B12: GpH7-A5/GpH7-B3 variant L234_16H/GpL16-k0 (antibody, human IgG1, kappa)
# heavy 1: not shown
# heavy 2: not shown
# light: B1 light
# notes: as for B8
# B13: GpH7-A5/GpH7-B3 variant L235_19Q/GpL16-k0 (antibody, human IgG1, kappa)
# heavy 1: not shown
# heavy 2: not shown
# light: B1 light
# notes: as for B8
# B14: GpH7-A5/GpH7-B3 variant L234_15Y/GpL16-k0 (antibody, human IgG1, kappa)
# heavy 1: not shown
# heavy 2: not shown
# light: B1 light
# notes: as for B8
# B15: GpH7-A5/GpH7-B3 variant L234_14T/GpL16-k0 (antibody, human IgG1, kappa)
# heavy 1: not shown
# heavy 2: not shown
# light: B1 light
# notes: as for B8
# B16: GpH7-A5/GpH7-B3 variant L234_02A/GpL16-k0 (antibody, human IgG1, kappa)
# heavy 1: not shown
# heavy 2: not shown
# light: B1 light
# notes: as for B8
# B17: GpH7-A5/GpH7-B3 variant L235_14T/GpL16-k0 (antibody, human IgG1, kappa)
# heavy 1: not shown
# heavy 2: not shown
# light: B1 light
# notes: as for B8
# B18: GpH7-A5/GpH7-B3 variant L234_19Q/GpL16-k0 (antibody, human IgG1, kappa)
# heavy 1: not shown
# heavy 2: not shown
# light: B1 light
# notes: as for B8
# B19: GpH7-A5/GpH7-B3 variant L235_18N/GpL16-k0 (antibody, human IgG1, kappa)
# heavy 1: not shown
# heavy 2: not shown
# light: B1 light
# notes: as for B8
# B20: GpH7-A5/GpH7-B3 variant L235_01G/GpL16-k0 (antibody, human IgG1, kappa)
# heavy 1: not shown
# heavy 2: not shown
# light: B1 light
# notes: as for B8
# B21: GpH7-A5/GpH7-B3 variant L234_13S/GpL16-k0 (antibody, human IgG1, kappa)
# heavy 1: not shown
# heavy 2: not shown
# light: B1 light
# notes: as for B8
# B22: GpH7-A5/GpH7-B3 variant L234_12R/GpL16-k0 (antibody, human IgG1, kappa)
# heavy 1: not shown
# heavy 2: not shown
# light: B1 light
# notes: as for B8
# B23: GpH7-A5/GpH7-B3 variant L234_11K/GpL16-k0 (antibody, human IgG1, kappa)
# heavy 1: not shown
# heavy 2: not shown
# light: B1 light
# notes: as for B8
# B24: GpH7-A5/GpH7-B3 variant L235_03V/GpL16-k0 (antibody, human IgG1, kappa)
# heavy 1: not shown
# heavy 2: not shown
# light: B1 light
# notes: as for B8
# B25: GpH7-A5/GpH7-B3 variant L234_05P/GpL16-k0 (antibody, human IgG1, kappa)
# heavy 1: not shown
# heavy 2: not shown
# light: B1 light
# notes: as for B8
# B26: GpH7-A5/GpH7-B3 variant G237_12R/GpL16-k0 (antibody, human IgG1, kappa)
# heavy 1: not shown
# heavy 2: not shown
# light: B1 light
# notes: Heterodimerized anti-glypican-3 IgG1; mutation in one H chain only; also called He Ab
# B27: GpH7-A5/GpH7-B3 variant G237_11K/GpL16-k0 (antibody, human IgG1, kappa)
# heavy 1: not shown
# heavy 2: not shown
# light: B1 light
# notes: as for B26
# B28: GpH7-A5/GpH7-B3 variant G237_11K/GpL16-k0 (antibody, human IgG1, kappa)
# heavy 1: not shown
# heavy 2: not shown
# light: B1 light
# notes: Heterodimerized anti-glypican-3 IgG1; mutation only in the GpH7-B3 H chain; also called He Ab
# B29: GpH7-A5/GpH7-B3 variant G237_12R/GpL16-k0 (antibody, human IgG1, kappa)
# heavy 1: not shown
# heavy 2: not shown
# light: B1 light
# notes: as for B28
# Target: T5, FcγRIIIa extracellular domain with C-terminal His tag (human, UniProt P08637 17-208)
# T5 construct: extracellular domain; also called 3a; FcgRIIIa
# Assay: SPR; ratio of He/Con_3a (FcγRIIIa) to He/Con_2b (FcγRIIb)
# Protocol: (§1) The heterodimerized antibodies He Abs in which one of the H chains was introduced with an alteration were assayed for their binding activities to each activating FcγR and inhibitory FcγR according to the method described in Example 4. […] The activating FcγRs in FIGS. 26, 27, 28, and 29 are FcγRIa, FcγRIIa (R), FcγRIIa (H), and FcγRIIIa, respectively.
# (§2) Analysis of interaction between objective antibody and the FcγR was carried out using Biacore T100 (GE Healthcare). HBS-EP+ (GE Healthcare) was used as the running buffer, and the measurement temperature was set to 25° C. Chips produced by immobilizing the antigen peptide by the amine coupling method to a Series S Sencor Chip CM5 (GE Healthcare), or alternatively, chips produced by allowing preliminarily biotinylated antigen peptides to interact with and immobilize onto a Series S Sensor Chip SA (certified) (GE Healthcare) were used. Antibodies of interest were captured onto an antigen peptide-immobilized chip, and allowed to interact to each FcγR diluted with running buffer. To regenerate and repeatedly use the chip, the antibodies captured on the chip were washed off by reacting 10 mM glycine-HCl, pH 1.5.
# T5 sequence (P08637 17-208): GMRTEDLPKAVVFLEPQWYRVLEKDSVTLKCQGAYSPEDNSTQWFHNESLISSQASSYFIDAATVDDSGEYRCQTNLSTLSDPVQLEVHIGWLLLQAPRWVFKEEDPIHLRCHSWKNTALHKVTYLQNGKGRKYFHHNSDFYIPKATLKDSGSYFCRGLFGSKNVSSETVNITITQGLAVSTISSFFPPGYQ
row,He_3a/2b (IIIa/IIb),Binder
1,1.21,B1
2,1.64,B2
3,4.29,B3
4,1.38,B4
5,1.95,B5
6,2.21,B6
7,1.93,B7

# Target: T1, FcγRIIa H
# Assay: SPR (Biacore); He/Con_2aH divided by He/Con_2b (FcγRIIa H over FcγRIIb)
row,He_2aH/2b (IIaH/IIb),Binder
1,3.61 ratio,B8
2,1.49 ratio,B9
3,1.37 ratio,B10
4,1.2 ratio,B11
5,1.47 ratio,B12
6,1.45 ratio,B13
7,1.25 ratio,B14
8,1.25 ratio,B15
9,1.25 ratio,B16
10,1.53 ratio,B17
11,1.31 ratio,B18
12,1.2 ratio,B19
13,1.53 ratio,B20
14,1.36 ratio,B21
15,2.53 ratio,B22
16,2.52 ratio,B23
17,1.28 ratio,B24
18,1.28 ratio,B25

# Target: T2, FcγRIIa R
# Assay: SPR (Biacore T100), antibody captured on antigen peptide chip, FcγR as analyte; binding relative to GpH7-A5/GpH7-B3/GpL16-k0 = 100
# Protocol: as §1, §2
row,He/Con_2aR (IIaR binding),Binder
1,24.2 % of control,B26
2,17.1 % of control,B27

# Target: T6, FcγRIa extracellular domain with C-terminal His tag (human, UniProt P12314 16-292)
# T6 construct: extracellular domain; also called FcgRI; CD64; not shown: His tag at the C terminus
# Assay: SPR (Biacore), antibody captured, FcγR analyte; relative to GpH7-A5/GpH7-B3/GpL16-k0 = 100
# T6 sequence (P12314 16-292): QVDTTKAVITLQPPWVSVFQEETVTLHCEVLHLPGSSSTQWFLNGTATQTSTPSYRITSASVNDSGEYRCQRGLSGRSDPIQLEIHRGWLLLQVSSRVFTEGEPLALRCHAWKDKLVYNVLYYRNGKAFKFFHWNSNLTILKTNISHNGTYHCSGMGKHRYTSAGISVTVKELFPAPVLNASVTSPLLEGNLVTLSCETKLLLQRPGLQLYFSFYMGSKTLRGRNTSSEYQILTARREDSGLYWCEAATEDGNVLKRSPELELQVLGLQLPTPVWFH
row,He/Con_1a,Binder
1,63.3 % of HeCon Ab,B28
2,65.8 % of HeCon Ab,B29

# Target: T1, FcγRIIa H
# Assay: SPR (Biacore), antibody captured, FcγR as analyte; binding relative to GpH7-A5/GpH7-B3/GpL16-k0 = 100
row,He/Con_2aH,Binder
1,22.7 % of control,B8
2,75.6 % of control,B9
3,66.1 % of control,B10
4,120 % of control,B11
5,87.3 % of control,B12
6,62 % of control,B13
7,120 % of control,B14
8,78.1 % of control,B15
9,81 % of control,B16
10,71.5 % of control,B17
11,79.2 % of control,B18
12,66.1 % of control,B19
13,54.1 % of control,B20
14,80.4 % of control,B21
15,47.7 % of control,B22
16,40.8 % of control,B23
17,85.3 % of control,B24
18,93.5 % of control,B25

# Target: T3, FcγRIIb
# Assay: as above
row,He/Con_2b,Binder
1,6.3 % of control,B8
2,50.7 % of control,B9
3,48.2 % of control,B10
4,99.8 % of control,B11
5,59.4 % of control,B12
6,42.6 % of control,B13
7,96.3 % of control,B14
8,62.5 % of control,B15
9,64.9 % of control,B16
10,46.8 % of control,B17
11,60.3 % of control,B18
12,54.9 % of control,B19
13,35.4 % of control,B20
14,59.3 % of control,B21
15,18.9 % of control,B22
16,16.2 % of control,B23
17,66.4 % of control,B24
18,72.9 % of control,B25

# Target: T4, FcγRIIb extracellular domain with …
# Assay: SPR, binding relative to GpH7-A5/GpH7-B3/GpL16-k0 = 100
row,He/Con_2b,Binder
1,51.5 % of control,B1
2,35.3 % of control,B2
3,49.9 % of control,B4
4,19 % of control,B5
5,39.3 % of control,B6
6,31 % of control,B7

# Target: T5, FcγRIIIa extracellular domain with …
# Assay: as above
row,He/Con_3a,Binder
1,62.2 % of control,B1
2,57.7 % of control,B2
3,41.2 % of control,B3
4,68.7 % of control,B4
5,37.1 % of control,B5
6,87 % of control,B6
7,59.7 % of control,B7

# Target: T2, FcγRIIa R
# Assay: SPR (Biacore T100); He/Con_2aR divided by He/Con_2b (FcγRIIa R over FcγRIIb)
# Protocol: as §1, §2
row,He_2aR/2b (IIaR/IIb),Binder
1,2.47 ratio,B26
2,1.9 ratio,B27

# Target: T6, FcγRIa extracellular domain with …
# Assay: SPR; He/Con_1a divided by He/Con_2b (FcγRIa against FcγRIIb)
row,He_1a/2b (Ia/IIb),Binder
1,7.05 ratio,B28
2,6.71 ratio,B29
